The test has as its target Nup358-min-GST, human Nup358 residues 2148-2240 (human, UniProt P49792 2148-2240). Kind of test: pull-down.

This is an account of results in paper PMC7437983 (Traffic (Copenhagen, Denmark), 2020).

Nup358-min-GST, human Nup358 residues 2148-2240, sequence (P49792 2148-2240): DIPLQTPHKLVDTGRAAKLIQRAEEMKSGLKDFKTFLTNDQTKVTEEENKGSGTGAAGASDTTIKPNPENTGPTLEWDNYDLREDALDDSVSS

B1: human Bicaudal D2 C-terminal cargo-binding domain, wild type (domain or fragment, UniProt Q8TD16 715-804, looked up)
chain: YENEKAMVTETMMKLRNELKALKEDAATFSSLRAMFATRCDEYITQLDEMQRQLAAAEDEKKTLNSLLRMAIQQKLALTQRLELLELDHE
Consider B1, for which the binding result is given as “binds”.
